Values quoted from earlier work as cited in paper PMC5242463.
pKd: −log10 of the molar value.

Target: Trigger Factor (Escherichia coli) (UniProt P0A850)
Sequence (P0A850 whole entry): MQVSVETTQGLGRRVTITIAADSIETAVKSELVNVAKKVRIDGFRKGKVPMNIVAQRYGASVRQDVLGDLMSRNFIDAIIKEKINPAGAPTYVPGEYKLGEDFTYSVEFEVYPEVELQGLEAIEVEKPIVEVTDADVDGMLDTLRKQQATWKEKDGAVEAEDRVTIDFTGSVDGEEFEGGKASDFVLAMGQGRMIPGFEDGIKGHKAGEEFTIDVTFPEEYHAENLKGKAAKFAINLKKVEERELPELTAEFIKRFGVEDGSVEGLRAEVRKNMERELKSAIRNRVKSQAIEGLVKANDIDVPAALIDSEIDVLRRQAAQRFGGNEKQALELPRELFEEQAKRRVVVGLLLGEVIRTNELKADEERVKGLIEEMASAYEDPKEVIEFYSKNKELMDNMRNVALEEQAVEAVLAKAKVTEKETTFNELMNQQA

Chain of Nascent Lep (P00803 whole entry): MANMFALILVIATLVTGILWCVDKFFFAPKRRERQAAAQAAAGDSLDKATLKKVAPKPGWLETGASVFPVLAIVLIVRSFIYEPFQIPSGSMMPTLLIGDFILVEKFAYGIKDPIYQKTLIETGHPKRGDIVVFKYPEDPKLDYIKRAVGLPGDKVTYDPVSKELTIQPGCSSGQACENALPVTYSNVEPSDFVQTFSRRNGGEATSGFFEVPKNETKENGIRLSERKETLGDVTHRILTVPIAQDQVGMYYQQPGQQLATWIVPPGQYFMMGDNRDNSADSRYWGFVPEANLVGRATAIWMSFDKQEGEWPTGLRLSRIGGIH

- pKd: 6.51
Substance: Nascent Lep (from UniProt P00803)
